# Data from patent US20240343803A1 (SHANDONG SIMCERE BIOPHARMACEUTICAL, published 2024).
# T1: human PVRIG-his (AcroBiosystems, Cat NO. PVG-H52H4) (human, UniProt Q6DKI7 41-171, limits assumed)
# T1 construct: Bought reagent; also called human PVRIG protein
# T1 sequence (looked up): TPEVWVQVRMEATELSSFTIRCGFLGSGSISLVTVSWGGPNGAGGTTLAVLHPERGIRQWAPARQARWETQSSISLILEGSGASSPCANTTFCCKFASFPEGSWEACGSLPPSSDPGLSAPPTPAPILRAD
# T2: cynomolgus monkey PVRIG (Novoprotein, Cat NO. C09B) (cynomolgus monkey, UniProt A0A2K5WVV8 41-171)
# T2 construct: Bought reagent; also called cynomolgus monkey PVRIG protein
# T2 sequence: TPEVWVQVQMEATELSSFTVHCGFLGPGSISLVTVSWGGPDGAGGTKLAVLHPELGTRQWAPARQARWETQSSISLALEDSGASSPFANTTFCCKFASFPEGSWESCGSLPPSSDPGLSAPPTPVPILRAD
# T3: human PVRIG on FlpinCHO-PVRIG cells (human, UniProt Q6DKI7 41-326)
# T3 construct: whole, on cells
# T3 sequence (looked up): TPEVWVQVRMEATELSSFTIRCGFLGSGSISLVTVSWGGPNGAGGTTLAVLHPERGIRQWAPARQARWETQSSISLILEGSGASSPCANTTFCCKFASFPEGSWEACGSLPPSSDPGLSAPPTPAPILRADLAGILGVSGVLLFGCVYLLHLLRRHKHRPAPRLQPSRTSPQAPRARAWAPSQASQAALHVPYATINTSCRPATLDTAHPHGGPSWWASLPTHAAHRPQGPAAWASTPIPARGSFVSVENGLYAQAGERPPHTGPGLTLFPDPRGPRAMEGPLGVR
# T4: cynomolgus monkey PVRIG on FlpinCHO-cyno PVRIG cells (cynomolgus monkey, UniProt A0A2K5WVV8 41-322)
# T4 construct: whole, on cells
# T4 sequence: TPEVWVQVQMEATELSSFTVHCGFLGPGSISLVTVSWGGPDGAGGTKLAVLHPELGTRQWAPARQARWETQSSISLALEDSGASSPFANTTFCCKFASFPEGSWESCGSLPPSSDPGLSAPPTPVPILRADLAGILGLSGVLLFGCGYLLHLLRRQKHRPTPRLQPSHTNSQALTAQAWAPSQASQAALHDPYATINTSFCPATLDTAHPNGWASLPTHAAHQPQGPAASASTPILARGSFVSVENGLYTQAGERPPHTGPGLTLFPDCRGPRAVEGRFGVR
# B1: PVRIG-A117 (Fc fusion)
# chain: EVQVVESGGGLVQAGGSLRLSCTASEHIYDLYIMGWYRQAPGKDRELVATITYTGSIYIADSVKDRFTISRGNAKNTVSLQMSGLKPEDTAVYYCNADPSGLGRKLYWGQGTQVTVSS
# notes: Alpaca VHH joined to human IgG1 Fc (VHH-hinge-CH2-CH3); not shown: human IgG1 hinge-CH2-CH3
# B2: PVRIG-A50 (Fc fusion)
# chain: EVQLVESGGGLVQPGGSLRLSCAASGFTFSYYDMSWVRQAPGKGLEWVSTINSNGGRTSYVDSVKGRFTISRDNTKNTLYLQMNSLKPEDTAVYYCVEGDPHNFGLENLSLRDFGSWGQGTQVTVSS
# notes: as for B1
# B3: PVRIG-A75 (Fc fusion)
# chain: QLQLVESGGGLVQSGGSLRLSCAASGRTRSMYVMGWFRQAPGKEREFVGRIKWSGDTTYTSYADFVKGRFTLYGNQARNTVYLQMNSLKPEDTAVYSCAASKFPVSGVPEHYDYWGQGTQVTVSS
# notes: as for B1
# B4: PVRIG-A60 (Fc fusion)
# chain: QVQLVESGGGLVQSGGSLRLSCAASGRTRSMYVMGWFRQAPGKEREFVGRIKWSGDTTYTSYADFVKGRFTLYGNQARNTVYLQMNSLKPEDAAVYYCNLRRLDGVNYWGKGTLVTVSS
# notes: as for B1
# B5: PVRIG-A35 (Fc fusion)
# chain: EVQVVESGGGLVQSGGSLRLSCAASGRTRSMYVMGWFRQAPGKEREFVGRIKWSGDTTYTSYADFVKGRFTLYGNQARNTVYLQMNSLKPEDTAVYYCNGRSRFNVINAWGTGTLVTVAS
# notes: as for B1
# B6: PVRIG-A118 (Fc fusion)
# chain: QVQLVESGGGLVQAGGSLRLSCAASETYFDLYVMGWYRQAPGKDRELVATITYTGSIKIVDSVKDRFTISRGDAKNTVSLQMSSLKPEDTAVYFCNADPSGLGRKVYWGQGTQVTVSS
# notes: as for B1
# B7: PVRIG-A15 (Fc fusion)
# chain: QVQLVESGGGLVQAGGSLRLSCVASGRTFSANTMAWFRQAPGKEREFVAYTRWTDDNTDYASYADFVKGRFTAFRDNTRNTMYLQMNRLRPEDTAVYYCAAATTRGTYYSAGDYNSWGQGTQVTVSS
# notes: as for B1
# B8: PVRIG-A113 (Fc fusion)
# chain: QLQLVESGGGLVQSGGSLRLSCAASGRTRSMYVMGWFRQAPGKEREFVGRIKWSGDTTYTSYADFVKGRFTLYGNQARNTVYLQMNSLKPEDTAVYYCAALPSDYDYRAASYGVDYWGKGTLVTVSS
# notes: as for B1
# B9: PVRIG-A105 (Fc fusion)
# chain: EVQLVESGGGLVQAGGSLRLSCAASGRTFDRHTMTWFRQAPGKEREFVATASRIPGDTYYSHSVKGRFTISRDNAKNTVYLQLNNLKPEDTAVYYCAATSAYCSEVDCYEKGSWYDNWGQGIQVTVSS
# notes: as for B1
# B10: PVRIG-A30 (Fc fusion)
# chain: QVQLVESGGGLVQPGGSLRLSCAASGRTDSMNVMGWFRRAPGKEREFVARIKWNGDTTYTAYADFLKGRFTLYGAVARNRVYLQMNSLQPEDTAVYYCAAGEVSGSSYSPDYGMHYWGKGTLVTVSS
# notes: as for B1
# Molecular target: T1, human PVRIG-his (AcroBiosystems, Cat …)
# Assay: ELISA, coated human PVRIG-his
# Procedure: (§1) The ELISA plate was pre-coated with 100 μL/well of 0.5 μg/mL human PVRIG-his (AcroBiosystems, Cat NO. PVG-H52H4) or cynomolgus monkey PVRIG (Novoprotein, Cat NO. C09B). […] A HRP substrate, TMB (Thermo, Cat NO. 34029) was added into wells after washing the plate again for color development. After adding a termination solution to terminate the reaction, the absorbance value was read by a microplate reader (MD i3×). An antibody binding curve was drawn with concentration of antibodies as the abscissa and the corresponding OD value as the ordinate. The EC50 value was calculated by using a Four Parameter Logistic Fit (GraphPadPrism9). The smaller the EC50 value, the stronger the ability of the antibodies binds to human or cynomolgus monkey PVRIG. The positive control antibodies are COM701-hIgG1 (Patent No.:US20180244774A1), COM701-hIgG4 (patent No.: US20180244774A1) and SRF813-hIgG1 (Patent No.:US20200040081A1); and the negative control antibodies are anti-HA HcAb-hIgG1 (Chengdu NB Biolab, Cat NO. NBR022), anti-CD38 HcAb-hIgG1 (in-house) and anti-Fluorescein-hIgG1 (in house).
row,Binder,EC50
1,B1,52.8 pM
2,B2,196 pM
3,B3,62.1 pM
4,B4,55.7 pM
5,B5,54.3 pM
6,B6,51.4 pM
7,B7,208 pM
8,B8,92 pM
9,B9,57.1 pM
10,B10,255 pM

# Molecular target: T2, cynomolgus monkey PVRIG (Novoprotein, …)
# Assay: ELISA, coated cynomolgus monkey PVRIG
# Procedure: as §1
row,Binder,EC50
1,B1,41.8 pM
2,B2,53.4 pM
3,B3,28.8 pM
4,B4,34.3 pM
5,B5,28.8 pM
6,B6,34.1 pM
7,B7,129 pM
8,B8,44.3 pM
9,B9,19.2 pM
10,B10,93 pM

# Molecular target: T3, human PVRIG on FlpinCHO-PVRIG cells
# Assay: FACS, FlpinCHO-PVRIG cells; AUC of MFI curve relative to COM701-hIgG1
# Procedure: (§2) The Ham's F12 (Gibico, 21127-022) complete medium containing 10% FBS was then added to terminate the digestion and acquire cell suspension. After counting with a cell counter (Beckman Coulter, Vi-CELL), an appropriate amount of cell suspension was centrifuged at 350×g to remove the supernatant, washed twice with PBS, stained with Zombie violet (Biolegend, 423114) and incubated at room temperature for 20 minutes. After incubation, the cells were added with staining buffer (2% FBS+PBS) to stop staining, centrifuged at 350×g to remove the supernatant, washed twice and resuspended with staining buffer to a density of 2×10⁶ cells/mL. The cells were plated into a 96-well plate (50 μL of cell suspension per well) for further use. The antibodies were diluted from the highest concentration of 46 nM (two-fold concentration) with staining buffer by 3.3-fold serial dilution. The diluted antibodies were added to the well containing 50 μL of cell suspension. The plate was placed on a microplate shaker at 400 rpm for 1 minute to fully mix the antibodies and cells, and then incubated at 4° C. for 30 minutes. After the incubation, the cells were washed twice with staining buffer (200 μL per well) and centrifuged at 350×g for 5 minutes to discard the supernatant. The PE goat anti-human IgG Fc antibody (ebioscience, 12-4998-82) was diluted 250 times with staining buffer, added into the washed wells (100 μL per well), mixed well, and stained at 4° C. for 30 minutes. After staining, the cells were washed twice with staining buffer, finally resuspended with 200 μL staining buffer and analyzed by flow cytometry (BD, Canto II). The stronger the signal, the stronger the ability of the antibodies binds to PVRIG. An antibody binding curve was drawn with concentration of antibodies as the abscissa and the corresponding Mean Fluorescence Intensity (MFI) as the ordinate. The AUC value of the curve was calculated by using a Four Parameter Logistic Fit (GraphPadPrism9). The stronger the AUC value, the stronger the ability of the antibodies binds to FlpinCHO-PVRIG and FlpinCHO-cyno PVRIG. […] The binding activity of the antibodies was normalized to the positive control COM701-hIgG1 and SRF813-hIgG1.
row,Binder,% AUC to COM701-hIgG1
1,B1,133%
2,B2,89.5%
3,B3,50.6%
4,B4,63.3%
5,B5,122%
6,B6,153%
7,B7,36.3%
8,B8,42.4%
9,B9,123%
10,B10,29.3%

# Molecular target: T3, human PVRIG on FlpinCHO-PVRIG cells
# Assay: FACS, FlpinCHO-PVRIG cells; AUC of MFI curve relative to SRF813-hIgG1
# Procedure: as §2
row,Binder,% AUC to SRF813-hIgG1
1,B1,181%
2,B2,115%
3,B3,54.5%
4,B4,68.6%
5,B5,134%
6,B6,232%
7,B7,42.7%
8,B8,57.4%
9,B9,162%
10,B10,34.4%

# Molecular target: T4, cynomolgus monkey PVRIG on …
# Assay: FACS, FlpinCHO-cyno PVRIG cells; AUC of MFI curve relative to COM701-hIgG1
# Procedure: as §2
row,Binder,% AUC to COM701-hIgG1
1,B1,128%
2,B2,59.3%
3,B3,47.6%
4,B4,63.4%
5,B5,19.3%
6,B6,66.4%
7,B7,24.8%
8,B8,38.6%
9,B9,122%
10,B10,28.7%

# Molecular target: T4, cynomolgus monkey PVRIG on …
# Assay: FACS, FlpinCHO-cyno PVRIG cells; AUC of MFI curve relative to SRF813-hIgG1
# Procedure: as §2
row,Binder,% AUC to SRF813-hIgG1
1,B1,174%
2,B2,69.7%
3,B3,62.4%
4,B4,82.9%
5,B5,25.3%
6,B6,80.4%
7,B7,29.1%
8,B8,52.7%
9,B9,157%
10,B10,33.8%
